Earlier results in patent US8076300B2, “FGF2-binding peptides and uses thereof” (Tecnogen S.p.A., priority 2006, dated 2011).

Molecular target: FGF2 (Homo sapiens, UniProt P09038)
Settings: cited from earlier work

FGF2, sequence (P09038 143-288): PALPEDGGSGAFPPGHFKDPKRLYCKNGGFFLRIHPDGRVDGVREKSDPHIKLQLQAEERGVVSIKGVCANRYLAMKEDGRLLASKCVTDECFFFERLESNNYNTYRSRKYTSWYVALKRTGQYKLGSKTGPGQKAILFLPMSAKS

Question: With “SAP: classical short-pentraxin serum amyloid P component” as the substance, how does the FGF2 binding read?
Answer: inefficient FGF2 binders
